Results on one substance are retold here after patent US20080009458.

For this data set, the system named is p53.

Take GST-COP1: the “in vitro ubiquitination of p53 (immunoblot of ubiquitinated species of p53)” value was “Only with all of the reaction components and p53 present was COP1 able to directly ubiquitinate p53”.
